Patent US20230285523A1, “USE OF ELAFIN IN THE TREATMENT OF COVID-19” (priority 2021, published 2023)
No end group written: not given here.

Key:
[1] = rats, cited from earlier work
[2] = Phase I clinical study, single intravenous doses; format: in vivo; conditions: single intravenous doses of 20 to 400 mg
[3] = Two clinical Phase II studies, intravenous doses; format: in vivo; conditions: intravenous doses of 200 mg
[4] = in vivo; cited from earlier work
[5] = after heart transplantation, myocardial infarction, skeletal muscle ischemia; cited from earlier work
[6] = test system: MCP-1 (macrophage chemoattractant protein-1; CCL2); conditions: U937 cells, LPS; cited from earlier work
20 S proteasome = conditions: cited from earlier work
[7] = test system: transcription factors AP-1 and NF-κB; conditions: U937 cells; cited from earlier work
[8] = One phase I and two phase II randomized double-blind placebo-controlled clinical trials in a surgery program; format: in vivo
Excerpt: The clinical trials in the surgery development program established an intravenous single dosing scheme with perioperative administration via infusion.

[9] = after esophageal cancer surgery

| Substance | accumulation in other organs, including the brain ([1]; 24 h p.i.) | radioactivity in the dissected kidney ([1]; 24 h p.i.) [%ID/g] | terminal elimination half-life in blood ([1]; bolus intravenous injection, blood) [h] | maximum accumulation in the kidney ([1]; kidney, 5 min post injection, SPECT) | share of detected radioactivity in the kidney identified as not metabolized ([1]; kidney, 24 h p.i.) [%] | tolerability [2] | tolerability [3] | ventilator induced injury [4] | reperfusion injury [5] | production of MCP-1 [6] | inhibition of peptidase activities associated with the 20 S proteasome (20 S proteasome) | LPS-induced activation of AP-1 and NF-κB [7] | kidney, liver and heart organ damages [8, 9] | organ protective effect (length of ICU stay) [8, 9] | tolerability of intravenous application ([8]; one phase I and two phase II trials, surgery program) | safety concerns ([8]; surgery program clinical trials) |
| --- | --- | --- | --- | --- | --- | --- | --- | --- | --- | --- | --- | --- | --- | --- | --- | --- |
| 99mTc-elafin: 99mTc-labeled elafin used for SPECT pharmacokinetics in rats (AQEPVKGPVSTKPGSCPIILIRCAMLNPPNRCLKDTDCPGIKKCCEGSCGMACFVPQ; ends and bridges not checked; also: 99mTc label; UniProt P19957 61-117, looked up) | no accumulation | 4.98±1.24 | 3.33 | 8.5%±0.1% | 30 | – | – | – | – | – | – | – | – | – | – | – |
| Tiprelestat: INN name of elafin; recombinant human protein of 57 amino acids, about 6 kDa, inhibitor of elastase and proteinase 3 (AQEPVKGPVSTKPGSCPIILIRCAMLNPPNRCLKDTDCPGIKKCCEGSCGMACFVPQ; listed as Homo sapiens) | – | – | – | – | – | well tolerated | well tolerated | able to reduce | suppresses reperfusion injury | inhibition of the production | no inhibition | inhibited | trend towards lower | organ protective effect was confirmed | well tolerated | No major safety concerns were observed |
